As usually defined, the stoichiometry N is the number of molecules, sites or subunits per partner or assembly.

The source of these data is doi:10.1101/2020.09.10.291138.

The assay addresses human IgM-Fc (heavy chain constant domains Cμ2, Cμ3, Cμ4 and the tailpiece) (human). Kind of assay: cryo-EM structure.

Substance “human IgM-Fc (heavy chain constant domains Cμ2, Cμ3, Cμ4 and the tailpiece) (domain or fragment)” displayed a stoichiometry N of 5.
